Experimental findings from PMC3873893 are described below.

The target in the experiment is GST-WWCA (bovine N-WASP WWCA, A403-D505) (bovine) (UniProt Q95107).
Chain of UniProt Q95107 (Q95107 403-505): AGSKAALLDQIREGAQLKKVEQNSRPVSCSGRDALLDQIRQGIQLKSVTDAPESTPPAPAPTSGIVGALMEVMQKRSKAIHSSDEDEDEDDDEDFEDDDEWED

In turn, “rabbit skeletal muscle actin (Mg-ATP actin; filament barbed ends) (from UniProt P68135 1-377) (natural protein)” registered a barbed-end rate of filaments tethered to WWCA nanofibers, 1 μM actin, 1 mM Mg^2+ of 21.4 subunits/s.
